Test results published in article PMC7102968, “The complex formed between a synthetic RNA aptamer and the transcription repressor TetR is a structural and functional twin of the operator DNA–TetR regulator complex” (Nucleic Acids Research, 2020).

Biological target: the molecule itself
Assay: crystal structure; TetR co-crystallised with RNA aptamer K1 (2.7 Å) or K2 (2.9 Å); complex purified by gel filtration in 20 mM Tris-HCl pH 8.0, 150 mM NaCl, 5 mM MgCl2; sitting-drop vapor diffusion at 20°C

B1: TetR type BD' (TetR (B1–B187:D188–D208; C68S, C88N, C121T and C144S)) (natural protein)
chain: MSRLDKSKVINSALELLNEVGIEGLTTRKLAQKLGVEQPTLYWHVKNKRALLDALAIEMLDRHHTHFSPLEGESWQDFLRNNAKSFRNALLSHRDGAKVHLGTRPTEKQYETLENQLAFLTQQGFSLENALYALSAVGHFTLGSVLEDQEHQVAKEERETPTTDSMPPLLRQAIELFDHQGAEPAFLHGLESLIRGFEVQLTALLQIV
notes: TetR class B, residues 1-187 of the cysteine-free chimeric TetR type BD'; TetR class D, residues 188-208 of the chimeric TetR type BD'; homodimer; also called Tet repressor; wild-type TetR; source: purified
In the case of B1, the “stoichiometry N” value is reported as 2.
